According to paper PMC12670400, “LEKTI-Grafted Sunflower Trypsin Inhibitor: A Potential Therapeutic for Skin Diseases” (Journal of Medicinal Chemistry, 2025):
Bridge positions count the residues as written; N and C are the ends. Ends that are not written are not given here.

How the values were obtained:
[1] = test system: KLK5-mediated PAR2 activation; test: PAR2-dependent intracellular calcium mobilization assay in N/TERT keratinocytes; assay type: cell-based; conditions: peptide 400 μM
Excerpt: PAR2, a member of the G-protein-coupled receptor family expressed in keratinocytes, is a known downstream target of KLK5. KLK5 activates PAR2 by cleaving its extracellular N-terminal domain. This cleavage exposes a tethered ligand, which binds PAR2 intramolecularly to activate the receptor. , Activated PAR2 causes protein kinase C (PKC) and inositol 1,4,5-trisphosphate (IP3) activation, leading to calcium release from the endoplasmic reticulum, known as intracellular calcium mobilization. […] This delay is attributed to the time required for KLK5 to enzymatically cleave the extracellular N-terminal domain of PAR2, thereby exposing the tethered ligand sequence necessary to initiate receptor activation and downstream calcium signaling. […] This observation confirmed PAR2-dependent calcium mobilization and that rKLK5 could initiate PAR2 activation. The inhibition potential of lead 7 on KLK5 activity was then assessed by using this assay. rKLK5 was preincubated with lead 7 at concentrations of 2.5, 5, 20, or 40 μM for one hour before being applied to cultured keratinocytes, after which PAR2-dependent calcium mobilization was measured.
For Ki calculation, Km values for KLK5 and its substrate Boc-VPR-AMC were previously reported in the literature 8, 9, allowing the conversion from IC50 to Ki using the Cheng Prusoff equation10 Kᵢ = IC₅₀ / (1 + [S]/Kₘ) for single-site competitive binding.
Cell lines and tissue cultures
Keratinocytes isolated from the skin in a patient with genetic skin disease Netherton Syndrome (NS19) and in healthy donors (C42, C46, P8) were used in the study. […]
The immortalized keratinocyte cell line (N/TERT)13, 14 were used for the assay. […] The cells were counted, and 100 µL of the suspension, at a density of 600,000 cells/mL, was seeded into each well of a 96 -well microplate. […]
calcium signalling. […] Fluorescence excitation was set at 485 nm, and emission was recorded at 520 nm using SpectraMax® i3x plate reader. […]

[2] = biological target: T1, KLK7 (Homo sapiens, UniProt P49862); parameters: purchased R&D Systems 2624-SE; conditions: read-out: Ki against KLK7; cited from earlier work
Target sequence in this assay (P49862 30-253): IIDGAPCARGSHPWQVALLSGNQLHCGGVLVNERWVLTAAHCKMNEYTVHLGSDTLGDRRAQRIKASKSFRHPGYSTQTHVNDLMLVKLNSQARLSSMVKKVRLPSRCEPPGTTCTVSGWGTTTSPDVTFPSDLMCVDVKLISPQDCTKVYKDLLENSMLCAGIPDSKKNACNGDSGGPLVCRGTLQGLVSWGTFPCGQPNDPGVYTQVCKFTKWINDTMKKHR

[3] = biological target: T2, KLK5 (Homo sapiens, UniProt Q9Y337); conditions: prior findings, reference not given; read-out: Ki against KLK5; cited from earlier work
T2 construct: purchased R&D Systems 1108-SE
T2 sequence (Q9Y337 23-293): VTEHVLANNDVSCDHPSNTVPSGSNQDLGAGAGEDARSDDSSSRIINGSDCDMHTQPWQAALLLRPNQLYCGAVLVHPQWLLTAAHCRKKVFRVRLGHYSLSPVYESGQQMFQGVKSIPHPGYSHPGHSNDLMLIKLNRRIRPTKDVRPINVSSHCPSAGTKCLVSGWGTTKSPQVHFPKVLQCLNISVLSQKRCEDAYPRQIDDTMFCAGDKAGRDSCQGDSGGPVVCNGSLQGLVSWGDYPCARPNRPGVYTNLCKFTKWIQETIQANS

[4] = biological target: T1, KLK7; test: enzyme inhibition assay (fluorogenic substrate); selectivity: inhibition of KLK7, KLK8 or KLK14 activity by the peptide, n = 3; substrates and conditions in the Supporting Information
[5] = biological target: T3, Kallikrein-related peptidase 5 (KLK5) (UniProt Q9Y337 23-293); test: enzyme inhibition assay (fluorogenic substrate); inhibition of KLK5 activity by the peptide, fluorogenic substrate Boc-VPR-AMC, n = 3; conditions in the Supporting Information; conditions: both partners purified
[6] = biological target: T3, Kallikrein-related peptidase 5 (KLK5); test: as above; conditions: both partners purified; remark: listed apart in the source
[7] = biological target: T4, KLK8 (UniProt O60259 33-260); test: enzyme inhibition assay (fluorogenic substrate); selectivity: inhibition of KLK7, KLK8 or KLK14 activity by the peptide, n = 3; substrates and conditions in the Supporting Information; conditions: both partners purified
T4 construct: Kallikrein 8 (KLK8); construct and source are in the Supporting Information
T4 sequence (looked up): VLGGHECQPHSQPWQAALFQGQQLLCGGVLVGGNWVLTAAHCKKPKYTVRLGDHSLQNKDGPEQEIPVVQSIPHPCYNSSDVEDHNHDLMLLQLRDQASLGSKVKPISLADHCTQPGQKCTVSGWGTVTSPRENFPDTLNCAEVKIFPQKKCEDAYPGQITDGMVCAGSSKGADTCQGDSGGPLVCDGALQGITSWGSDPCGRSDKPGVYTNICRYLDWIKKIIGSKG

[8] = biological target: T5, KLK14 (UniProt Q9P0G3); test: as above
T5 sequence (Q9P0G3 41-267, species assumed, looked up): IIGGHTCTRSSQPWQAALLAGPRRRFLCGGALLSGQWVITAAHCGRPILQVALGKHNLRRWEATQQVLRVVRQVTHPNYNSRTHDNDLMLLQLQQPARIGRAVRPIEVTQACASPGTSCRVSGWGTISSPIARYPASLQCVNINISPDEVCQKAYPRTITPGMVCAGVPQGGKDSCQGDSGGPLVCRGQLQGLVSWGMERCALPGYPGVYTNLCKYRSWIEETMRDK

Molecule: LRGILS-NH2 [R-AP, reference compound]
- calcium mobilization on stimulation of keratinocytes [1]: did not induce calcium mobilization

Molecule: SLIGRL-NH2 [AP, reference compound]
- calcium mobilization on stimulation of keratinocytes [1]: PAR2-dependent calcium mobilization was observed

Molecule: α1-antichymotrypsin [reference compound]
- Ki [2]: 500 nM

B1: LEKTI Domain 6: domain 6 of the endogenous serine protease inhibitor LEKTI (protein)
chain: ESGKATSYAELCNEYRKLVRNGKLACTRENDPIQGPDGKVHGNTCSMCEVFFQAEEEEKKKKEGESRN
modifications: Kazal-type disulfides
- Ki [3]: 83.3 nM

B2: LEKTI Domain 5: domain 5 of the endogenous serine protease inhibitor LEKTI (protein)
chain: REIVKLCSQYQNQAKNGILFCTRENDPIRGPDGKMHGNLCSMCQAYFQAENEEKKKAEARAR
modifications: Kazal-type disulfides
- Ki [3]: 32.8 nM

B3: SFTI analogue 8 (peptide)
peptide: cyclo(GFCHRSYPPECWPN)
modifications: disulfide 3-11 (inferred)
notes: SFTI scaffold grafted with residues of a LEKTI or LEKTI-like domain, glutamic acid at position 10; also called compound 8; source: synthetic peptide (hydrazide peptide, cyclised via native chemical ligation, oxidised, RP-HPLC purified)
- IC50 [4]: > 1000 nM
- IC50 [5]: 8.6 ± 2 nM
- Ki [6]: 8 nM
- IC50 [7]: > 1000 nM

B4: LEKTI-grafted SFTI analogue, lead 7 (peptide)
peptide: cyclo(GFCTRSNPPECWPN)
modifications: disulfide 3-11 (inferred)
notes: SFTI scaffold grafted with residues of a LEKTI domain, glutamic acid at position 10; source: synthetic peptide (hydrazide peptide, cyclised via native chemical ligation, oxidised, RP-HPLC purified)
- IC50 [8]: > 1000 nM
- IC50 [4]: > 1000 nM
- IC50 [5]: 14 ± 4 nM
- Ki [6]: 11 nM
- IC50 [7]: > 1000 nM
